In publication PMC1802081 one finds rel. KD (against wildtype BMP-2 from E. coli with the same receptor) and Kd data, which are given here for 4 molecules.

Numbering of substitutions follows the chain as printed. In names and notes the source's numbering stands.

Among the targets are BMP-2 A86P; BMP-2 L100K; BMP-2 N102D; BMP-2 S85R/A86P; BMP-2 S85R.
What all share (experiment): SPR; BIACORE 2000; biotinylated ligand on a streptavidin-modified CM5 chip (about 200 RU); receptor ectodomain as analyte at 1, 2, 3, 5, 10, 20 and 50 uM; HBS500 (10 mM HEPES pH 7.4, 500 mM NaCl, 3.4 mM EDTA, 0.005% P20); apparent KD from the dose dependence of equilibrium binding
For orientation: SPR reads the build-up and loss of mass on a sensor chip optically.

The target in experiment [1] is BMP-2 variant L100K/N102D.

B1: ActR-IIBECD wildtype (activin type IIB receptor ectodomain) (receptor)
chain: SGRGEAETRECIYYNANWELERTNQSGLERCEGEQDKRLHCYASWRNSSGTIELVKKGCWLDDFNCYDRQECVATEENPQVYFCCCEGNFCNERFTHLPEPGGPEVTYEPPPTAPTLLT
Consider B1, for which the rel. KD (against wildtype BMP-2 from E. coli with the same receptor) in the experiment with BMP-2 A86P was 2.6 fold; with BMP-2 L100K, 0.15 fold; with BMP-2 N102D, 7.8 fold; in the experiment with BMP-2 S85R/A86P, 1.4 fold; with BMP-2 S85R, 1.3 fold. Further, in experiment [1], the Kd was determined as 0.14 µM.

B2: ActR-IIBECD L61A (receptor)
chain: B1 chain with L61A
On to B2, for which the Kd in experiment [1] came to 14 µM.

B3: ActR-IIBECD L61P (receptor)
chain: B1 chain with L61P
For the molecule B3, the Kd in experiment [1] was 160 µM.

B4: BMPR-II receptor ectodomain (receptor)
chain: SQNQERLCAFKDPYQQDLGIGESRISHENGTILCSKGSTCYGLWEKSKGDINLVKQGCWSHIGDPQECHYEECVVTTTPPSIQNGTYRFCCCSTDLCNVNFTENFPPPDTTPLSPPHSFNRDET
For B4, the rel. KD (against wildtype BMP-2 from E. coli with the same receptor) with BMP-2 A86P was determined as 0.5 fold; with BMP-2 L100K it was 1.3 fold; in the experiment with BMP-2 N102D it was 0.96 fold; in the experiment with BMP-2 S85R/A86P, 0.19 fold; with BMP-2 S85R, 0.12 fold; in experiment [1], 0.92 fold.
